No end group written: not given here.
Assays:
[1] = target: T1, LRP peptide VTKEEFQGEWTAPAP (also: synthesized on a cellulose membrane); assay: peptide array on cellulose membrane, scFv 1:5000
T1 peptide: VTKEEFQGEWTAPAP
Description: (§1) The N-terminus of each peptide was displaced by 3 amino acids in relation to the previous peptide, so that each peptide overlapped with the previous peptide by 12 amino acids. The synthesis of the peptides was carried out on a cellulose membrane.

[2] = target: T2, LRP peptide EKAVTKEEFQGEWTA (also: synthesized on a cellulose membrane); assay: peptide array on cellulose membrane, scFv 1:5000
T2 peptide: EKAVTKEEFQGEWTA
Description: as §1

[3] = target: T3, 37 kDa/67 kDa LRP/LR on murine neuroblastoma cells (N2a) (murine, UniProt P14206 2-295); assay: FACS on N2a cells
T3 construct: whole, on cells; also called LRP/LR on the surface of N2a cells

[4] = target: T4, recombinant human LRP::FLAG expressed in BHK cells transfected with SFV1-huLRP-FLAG (human, UniProt P08865 2-295); assay: Western Blot of total extracts of transfected BHK cells
T4 construct: whole, on cells; also called human 37 kDa LRP::FLAG; rec; LRP::FLAG
Description: (§2) BHK cells were either not transfected (n.t.) or transfected in the manner known to the person skilled in the art in the specialty with the rec. Semliki forest virus (SFV) RNAs SFV1-huLRP-FLAG or SFV1-mol.RP::FLAG. The method of preparation of rec. SFV RNA, the transfection and the analysis by Western Blotting or immunofluorescence (FIG. 12) or FACS (FIG. 13) have already been described (Gauczynski et al., 2002; Gauczynski et al., 2001b). 24 h post-transfection, total cell extracts were analyzed by Western Blotting. […] The control used was the anti-LRP antibody mLRP43512 (A), and an anti-mouse IgG-HRP-coupled secondary antibody. As a loading control, the β-actin level was determined. To this end, an anti-β-actin antibody (Chemicon) was employed. Detection was carried out by chemiluminescence (Western Lightning, NEN). […] LRP::FLAG.

[5] = target: T5, recombinant murine LRP::FLAG expressed in BHK cells transfected with SFV1-moLRP::FLAG (murine, UniProt P14206 2-295); assay: as above
T5 construct: whole, on cells; also called muLRP-FLAG; murine 37 kDa LRP::FLAG
Description: as §2

[6] = target: T6, LRP peptide TEDWSAAPTAQATEW (synthesized on a cellulose membrane); assay: peptide array on cellulose membrane, scFv 1:5000
T6 peptide: TEDWSAAPTAQATEW
Description: as §1

[7] = target: T7, LRP peptide PSVPIQQFPTEDWSA (synthesized on a cellulose membrane); assay: peptide array on cellulose membrane, scFv 1:5000
T7 peptide: PSVPIQQFPTEDWSA
Description: as §1

Measured: binding result

B1: single chain antibody S18 selected from the synthetic scFv bank (scFv)
scFv: QVQLQESGGGLVQPGGSLRLSCAASGFMFSRYAMSWVRQAPGKGPEWVSGISGSGGSTYYADSVKGRFTVSRDNSKNTLYLQMNSLRAEDTAVYYCARHPGFWHFDYWGQGTLVTVSSGSASAPKLEEGEFSEARVSELTQDPAVSVALGQTVRITCQGDSLRNFYASWYQQKPGQAPTLVIYGLSKRPSGIPDRFSASSSGNTASLTITGAQAEDEADYYCNSRDRSGNHVNVLFGGGTKLTVLRQPKAAPSVTLFPPSSAAAGSHHHHHH
notes: VH and VL joined by a peptide linker (YOL), with a C-terminal histidine tag; also called scFv S18; scFvS18
binds: [1] | [2] | [3] | [4] | [5]

B2: single chain antibody N3 selected from the naive scFv bank (scFv)
scFv: EVQLVESGGGVVQPGRSLRLSCAASGFTFSSYGMHWVRQAPGKGLEWVAVIWYDGSNKYYADSVKGRFTISRDNSKNTLYLQMNSLRAEDTAVYYCATIPRSSFYYGMDVWGQGTTVTVSSGSASAPTLKLEEGEFSEARVQPVLTQPPSASGTPGQRVTISCSGSRSNIGSNTVNWYQQLPGTAPKLLIYGNNQRPSGVPERFSGSKSGTSASLAISGLQSEDEADYYCAAWDDSLTGVLFGGGTKLTVLGQPKAAPSVTLFPPSSAAAGSHHHHHH
notes: VH and VL joined by a peptide linker (YOL), with a C-terminal histidine tag; also called scFv N3; scFvN3
binds: [6] | [7] | [3] | [4] | [5]

From patent publication US20070041977A1 (AFFIMED THERAPEUTICS, published 2007)
